In US20240307453A1, “METHODS FOR CONTROLLING BLEEDING IN A SUBJECT AFFLICTED WITH HERMANSKY PUDLAK SYNDROME USING PLATELET DERIVATIVE COMPOSITIONS” (Cellphire, Inc., priority 2023, published 2024):

Experiments:
[1] = test system: phosphatidylserine (PS) surface on FPH; assay: T-TAS of FPH with increasing dose of lactadherin; type: biochemical, human; conditions: highest lactadherin concentration (200 μg/mL), FPH 8×10^4 cells/μl
Procedure: Cells were adjusted to 8×10^4 cells/μl by diluting in Octaplas and in preparations of either 0, 100, or 200 μg/mL of lactadherin and incubated for 30 minutes at room temperature before acquisition on T-TAS® (Zacros®, zacros.con.co.jp). Samples (480 μl) were normalized to the above counts and then transferred to microcentrifuge tubes containing 20 ul of CaCTI (CaCl2 and corn trypsin inhibitor). The CaCTI-treated samples were transferred to sample reservoirs on a T-TAS®. The sample reservoirs were then inserted into the AR microfluidic chips and acquired on the T-TAS. […] This confirms the necessity of retaining the negatively charged PS surface on FPH to generate thrombin.

[2] = test system: phosphatidylserine (PS); assay: FPH thrombin generation response to PS blocking by lactadherin; type: biochemical, human
Procedure: Lactadherin (Haematologic Technologies, haemtech.com) was thawed per manufacturer instructions. FPHs were incubated with lactadherin at room temperature for 30 minutes at a concentration of 0, 25, 50, 100, and 200 μg/ml. 60 mM GPRP (BACHEM, bachem.com), thrombin (Sigma Aldrich, sigmaaldrich.com) and Octoplas (Octophrama, octopharma.com) were thawed according to manufacturer's guidelines. CLARIOstarPlus was used to perform TGA. A master mix of Octaplas, PRP reagent (Diagnostica Stago, Cat. No. 86196), and GPRP was prepared in a ratio of 14:3:1, respectively. Flu substrate and Fluo-buffer were combined according to manufacturer's guidelines to create FluCa (Diagnostica Stago, stago.com). Master mix and the FluCa solution were placed in the 37° C. air incubator with agitation for 45±5 minutes. […] 10 μl of each sample was dispensed into selected wells of a 96-well plate (Corning, corning.com) by reverse pipetting. TGA dilution buffer for thrombin was used in the thrombin standard ladder. CLARIOstarPlus injectors 1 and 2 were primed with master mix and FluCa solution with 250 μl, then the injector was placed in the active position. The CLARIOstarPlus TGA program was loaded with parameters for TGA assay with injectors set to add 90 μl of master mix and 40 μl of FluCa solution to each well. Plate was inserted to be read.

B1: lactadherin: lactadherin used to block PS expression (protein, UniProt Q95114 19-427, looked up)
Lactadherin: ASGDFCDSSLCLHGGTCLLNEDRTPPFYCLCPEGFTGLLCNETEHGPCFPNPCHNDAECQVTDDSHRGDVFIQYICKCPLGYVGIHCETTCTSPLGMQTGAIADSQISASSMHLGFMGLQRWAPELARLHQTGIVNAWTSGNYDKNPWIQVNLMRKMWVTGVVTQGASRAGSAEYLKTFKVAYSTDGRQFQFIQVAGRSGDKIFIGNVNNSGLKINLFDTPLETQYVRLVPIICHRGCTLRFELLGCELNGCTEPLGLKDNTIPNKQITASSYYKTWGLSAFSWFPYYARLDNQGKFNAWTAQTNSASEWLQIDLGSQKRVTGIITQGARDFGHIQYVAAYRVAYGDDGVTWTEYKDPGASESKIFPGNMDNNSHKKNIFETPFQARFVRIQPVAWHNRITLRVELLGC
[1]
  effect on time to thrombus formation of FPH: approximately doubled the time to thrombus formation
[2]; lactadherin 0, 25, 50, 100, 200 μg/ml
  thrombin generation of FPH: decreasing thrombin generation
[2]; lactadherin 0-200 μg/ml, 1:64 dilution
  maximum peak time of thrombin generation of FPH: increasing maximum peak time
